Measurements taken from article PMC4351158 (Structure (London, England : 1993), 2015).
Changes are numbered by the printed parent chain. Where no end group is shown, it is not given here. fluorescein = fluorescein, a fluorescent label on the peptide N-terminus

Legend:
Test in all cases: fluorescence polarisation
DegS E230A = target: T1, DegS E230A (E. coli, UniProt P0AEE3 27-355, E230A)
T1 sequence (looked up): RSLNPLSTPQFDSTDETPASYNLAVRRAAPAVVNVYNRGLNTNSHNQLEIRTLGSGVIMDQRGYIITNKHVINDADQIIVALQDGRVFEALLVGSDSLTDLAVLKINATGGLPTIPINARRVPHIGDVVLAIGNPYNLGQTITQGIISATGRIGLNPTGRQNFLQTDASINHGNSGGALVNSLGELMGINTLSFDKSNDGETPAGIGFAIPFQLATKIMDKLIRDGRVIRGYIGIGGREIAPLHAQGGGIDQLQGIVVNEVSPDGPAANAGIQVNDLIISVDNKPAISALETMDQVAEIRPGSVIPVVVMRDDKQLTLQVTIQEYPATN

DegS F234A = target: T2, DegS F234A (E. coli, UniProt P0AEE3 27-355, F234A)
T2 sequence (looked up): T1 sequence (looked up) with A204E, F208A

DegS H198P = target: T3, DegS H198P (E. coli, UniProt P0AEE3 27-355, H198P)
T3 sequence (looked up): T1 sequence (looked up) with H172P, A204E

DegS Q191A/H198P = target: T4, DegS Q191A/H198P (E. coli, UniProt P0AEE3 27-355, Q191A | H198P)
T4 sequence (looked up): T1 sequence (looked up) with Q165A, H172P, A204E

DegS D221A/H198P = target: T5, DegS D221A/H198P (E. coli, UniProt P0AEE3 27-355, D221A | H198P)
T5 sequence (looked up): T1 sequence (looked up) with H172P, D195A, A204E

DegS P161A = target: T6, DegS P161A (E. coli, UniProt P0AEE3 27-355, P161A)
T6 sequence (looked up): T1 sequence (looked up) with P135A, A204E

Kd (DegS E230A): 5700 ± 1300 nM
Kd (DegS F234A): 5900 ± 600 nM
Kd (DegS H198P): 2500 ± 300 nM
Kd (DegS Q191A/H198P): 1400 ± 100 nM
Kd (DegS D221A/H198P): 1700 ± 100 nM
Kd (DegS P161A): 1500 ± 100 nM
B1: fluorescent OMP peptide fluorescein-DNRDGNVYYF (peptide)
peptide: fluorescein-DNRDGNVYYF
